Values of other authors, collected in PMC4860950.

Experiments:
CD2 (Mus musculus) = CD2 (Mus musculus) (UniProt P08920)
CD2 (Homo sapiens) = CD2 (Homo sapiens) (UniProt P06729)
CD244 (Homo sapiens) = CD244 (Homo sapiens) (UniProt Q9BZW8)
Sequence of UniProt Q9BZW8 (Q9BZW8 22-229): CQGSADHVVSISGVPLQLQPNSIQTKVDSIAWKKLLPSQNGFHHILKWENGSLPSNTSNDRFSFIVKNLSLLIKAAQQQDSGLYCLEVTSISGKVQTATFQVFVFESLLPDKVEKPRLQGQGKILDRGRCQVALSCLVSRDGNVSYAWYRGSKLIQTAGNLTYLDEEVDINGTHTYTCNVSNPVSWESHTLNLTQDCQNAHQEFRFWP

Sequence of UniProt P08920 (P08920 23-203): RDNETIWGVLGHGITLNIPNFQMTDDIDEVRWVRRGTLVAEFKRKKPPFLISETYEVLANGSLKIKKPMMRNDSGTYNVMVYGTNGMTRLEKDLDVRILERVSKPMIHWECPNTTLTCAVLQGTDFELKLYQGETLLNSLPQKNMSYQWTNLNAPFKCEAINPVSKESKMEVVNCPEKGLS
Sequence of UniProt P06729 (P06729 25-209): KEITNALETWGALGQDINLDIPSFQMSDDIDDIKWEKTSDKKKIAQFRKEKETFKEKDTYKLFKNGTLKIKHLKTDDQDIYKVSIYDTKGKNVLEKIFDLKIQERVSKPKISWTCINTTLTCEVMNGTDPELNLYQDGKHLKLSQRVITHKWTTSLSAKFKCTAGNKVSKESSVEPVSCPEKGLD

In the case of CD48 (from UniProt P18181), the Kd (CD2 (Mus musculus)) is listed as 90 µM.
For CD48 (from UniProt P09326), the Kd (CD2 (Homo sapiens)) is listed as 100 µM and the Kd (CD244 (Homo sapiens)) is listed as 8 µM.
